For 1 substance, IC50, EC50 and Kd results are on record in patent US20230088052A1.

pKd: −log10 of the molar value. Like-named read-outs stand apart in the source and are kept apart here.

Experiment [1] addresses humanized Fc-tagged human IL-4R recombinant protein (h-IL-4R-Fc) (human) (UniProt P24394). Nature of the experiment: blocking ELISA of human IL-4/IL-4R. In general terms: ELISA stands for enzyme-linked immunosorbent assay.
In experiment [2] the target is his-tagged human IL-4R recombinant protein (h-IL-4R-his) (human) (UniProt P24394). The experiment can be described thus: binding ELISA, human IL-4R-his coated.
Experiment [3] has the same target. Nature of the experiment: binding ELISA, human IL-4R-his coated. The source holds these as a separate data set.
Experiment [4] has the same target. The experiment can be described thus: binding ELISA, human IL-4R-his coated. This is another data set of the same source.
Experiment [5] shares this target. The experiment can be described thus: Biacore SPR: antibody captured, IL-4R antigen in flow, 1:1 model.
In experiment [6] the target is humanized Fc-tagged human IL-4R recombinant protein (h-IL-4R-Fc) (human) (UniProt P24394). The experiment can be described thus: blocking ELISA: human IL-4R-Fc coated, antibody blocks the binding of IL-4.
The target is the same in experiment [7]. The description is as above. This is another data set of the same source.

Chain of Dupilumab (antibody) (VH): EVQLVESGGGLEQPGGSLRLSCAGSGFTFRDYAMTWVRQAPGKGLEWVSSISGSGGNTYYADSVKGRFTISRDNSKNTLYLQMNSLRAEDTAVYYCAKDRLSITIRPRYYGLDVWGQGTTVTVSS
Chain of Dupilumab (antibody) (VL): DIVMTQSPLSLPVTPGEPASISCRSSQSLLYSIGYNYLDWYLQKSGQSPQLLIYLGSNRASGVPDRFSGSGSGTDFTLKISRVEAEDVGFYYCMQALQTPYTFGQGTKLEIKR

Dupilumab (antibody): the IC50 (as a rule, the midpoint of a concentration-inhibition curve) worked out at 0.156 µg/mL in experiment [1], 0.0521 µg/mL in experiment [6] and 0.209 µg/mL in experiment [7]. The EC50 (in general, the concentration at which the effect is half-maximal) is 0.0276 µg/mL in experiment [2], 0.0558 µg/mL in experiment [3] and 0.0426 µg/mL in experiment [4]. Further, the negative-log Kd (pKd) (in general, the Kd on a negative log10 scale, so that one unit is a factor of ten) in experiment [5] was 9.90.
